Patent US10568344B2, “Methods of improving animal performance” (Novozymes A/S, priority 2015, dated 2020)
Read-outs that look alike come from different tables or passages of the source. Marks after values point to notes of the source that are not given here.

Legend:
Bacteroidales = test: Microbiota analysis of broiler trial 4 (16S rRNA), Bacteroidales; format: in vivo, chicken; set-up: key to Observed shift compared to the control group, Significance: Significant change (+++), padj < 0.05; Numerical change (+); conditions: 50 ppm
[1] = system: Clostridium perfringens DSM756; format: cell-based; conditions: for Diameter of zone of incomplete inhibition of growth visible after MTT coloring: 100 μg/ml; for Diameter of clearing zone: lysozymes 100 μg/ml, bacitracin 50 μg/ml
[2] = system: Micrococcus lysodeikticus ATTC No. 4698; test: Lysozyme activity turbidity assay (optical density drop); conditions: pH 4
chicken gut microbiota = test: Microbiota analysis of broiler trial 4 (16S rRNA), overall composition; format: in vivo; conditions: 50 ppm; ceca content
[3] = In vivo broiler trial 4, FCR and EPEF; set-up: species or system male broiler type chickens (Cobb 500); conditions: 50 mg/kg in Grower feed (Days 8-24)
Experimental: Diet composition was designed to meet or exceed the requirements except for metabolisable energy, phosphorus and calcium (tables 15 and 16). […] During the Grower period, the lysozyme (SEQ ID NO: 1) was applied at […] as a liquid formulation (table 14). There were no other enzymes or any coccidiostats supplemented in the diets. The diets were prepared at a […] specialised in experimental diets and the mash feed was offered ad libitum to the birds. At the day of hatching, male day-old broiler type chickens (male byproducts of female parental line of Cobb 500) were obtained from Cobb Germany […] GmbH, […] (Brö[…] birds were randomly assigned in groups of 22 chickens to the experimental pens ( 3 sq·m.) equipped with a bell drinker and a round feeder. After 7 days of equal rearing, number of birds per pen was reduced to 20, selecting against obviously light birds. Recorded body weights (BW) were immediately statistically evaluated. In order to ensure similar average BW between treatments and variation within treatments statistical evaluation of BW-placement of chicks was coordinated in such a way as to minimize within-pen variation and between-treatment differences of average BW. Feed and water were freely available, feed consumption was recorded. Initial bedding consisted of wood shavings. Caked excreta patches around the drinkers were removed several times during the experimental period and more bedding material was added when required. Light and temperature regimes were managed according to the breeder's recommendations. Birds were weighed (groupwise) at placement and at the end of each fattening period. At the final weighing, birds were weighed individually. Feed offered was recorded continuously upon refilling the feeders; the feed remaining in the feeders was recorded at the end of each fattening period. […] Daily BW gain per bird (BW gain) and feed conversion ratio (FCR) were calculated as follows: BWgain: difference between BW per bird at the end and at the beginning of the study divided by the number of days FCR: total feed consumption of a pen divided by total BW gain of that pen (total BW gain=total BW at the end+weight of removals and losses-total BW at the beginning) The European Production Efficacy Factor (EEF) was calculated as follows: EEF=[(liveability,%×BWgain,kg)/(Study duration in days×FCR)]×100. Statistical Analysis Data of performance was analysed using a bi-factorial ANOVA (procedure PROC GLM) with the fixed effects of lysozyme supplementation as well as their interaction. Differences were investigated between the various levels of each main factor (Tukey test), accounting for multiple comparisons where appropriate.

[4] = In vivo broiler trial 2, growth performance; set-up: species or system male broiler chickens
Experimental: No additional enzymes (e.g. phytase) were added to the feed. The experimental diets (Starter and Grower) were based on soybean meal, wheat and rye (12%) as main ingredients (Table 6). The diets were formulated to contain 222 g crude protein and 12.5 MJ/kg MEN for the starter period and 204 g crude protein and 12.7 MJ/kg MEN for the grower period.

Clostridiales = test: Microbiota analysis of broiler trial 4 (16S rRNA), Clostridiales; format: in vivo, chicken; set-up: key to Observed shift compared to the control group, Significance: Significant change (+++), padj < 0.05; Numerical change (+); conditions: 50 ppm
[5] = system: Exiguobacterium undae (DSM14481); test: Lysozyme activity turbidity assay (optical density drop); format: biochemical; conditions: pH 5
[6] = Grower (d 22-36), 6.25 mg/kg feed
[7] = Grower (d 22-36), 12.5 mg/kg feed
[8] = Grower (d 22-36), 25 mg/kg feed
[9] = Starter (d 1-22), 6.25 mg/kg feed
[10] = Starter (d 1-22), 12.5 mg/kg feed
[11] = Starter (d 1-22), 25 mg/kg feed
[12] = Whole period (d 1-36), 6.25 mg/kg feed
[13] = Whole period (d 1-36), 12.5 mg/kg feed
[14] = Whole period (d 1-36), 25 mg/kg feed

B1: SEQ ID NO: 1: mature amino acid sequence of a wild type GH25 lysozyme from Acremonium alcalophilum with N-terminal SPIRR (protein)
chain: SPIRRRIPGFDISGWQPTTDFARAYANGDRFVYIKATEGTTFKSSAFSRQYTGATQNGFIRGAYHFAQPAASSGAAQARYFASNGGGWSKDGITLPGALDIEYNPNGATCYGLSQSAMVNWIEDFVTTYHGITSRWPVIYTTTDWWTQCTGNSNRFANRCPLWIARYASSVGTLPNGWGFYTFWQYNDKYPQGGDSNWFNGDASRLRALANGD
modifications: Wild type sequence with N-terminal SPIRR
Observed shift compared to the control group, Significance (Bacteroidales; Order level (Bacteroidales)): + | Bacteroidales Change vs control (Bacteroidales; order level): −15.8551 | Bacteroidales Ratio vs control (Bacteroidales; order level): 0.7538 | Bacteroidales abundance, Lysozyme treatment (Bacteroidales; order level, ceca content): 48.5437 | Inhibition zone ([1]; 1/10 MHB, pH7, both experiments): 11-13 mm | Diameter of zone of incomplete inhibition of growth visible after MTT coloring ([1]; Experiment 1, 1/2 MHB pH 6): 20 mm | Diameter of clearing zone ([1]; Experiment 1, 1/2 MHB pH 6): 6 mm | Diameter of clearing zone ([1]; Experiment 1, 1/10 MHB pH 7): 13 mm | Diameter of zone of incomplete inhibition of growth visible after MTT coloring ([1]; Experiment 2, 1/2 MHB pH 6): 19 mm | Diameter of clearing zone ([1]; Experiment 2, 1/2 MHB pH 6): 4 mm | Diameter of clearing zone ([1]; Experiment 2, 1/10 MHB pH 7): 11 mm | Larger incomplete clearing zone ([1]; ½ MHB, pH 6, after coloring with MTT): 19-20 mm | Clearing zone diameter ([1]; ½ MHB, pH 6, both experiments): 4-6 mm | Lysozyme activity as measured by Optical Density Drop [2]: + (pH 4) | Observed shift in the composition of the microbiota compared to the control group, Significance (chicken gut microbiota): +++ (Significant change (+++), p-value < 0.05) | EPEF [3]: 327 | FCR [3]: 1.56 | EPEF % improvement ([3]; vs no lysozyme): 3.8% | EPEF change ([3]; vs no lysozyme): 12 | FCR % improvement ([3]; vs no lysozyme): 1.9% | FCR change ([3]; vs no lysozyme): 0.03 | FCR [4, 6]: 1.753^a | FCR, Relative to C (%) [4, 6]: 101.9% | Feed intake [4, 6]: 2705 g/b | Feed intake, Relative to C (%) [4, 6]: 99.1% | Weight gain [4, 6]: 1545 g/b | Weight gain, Relative to C (%) [4, 6]: 97.4% | FCR [4, 7]: 1.692^a | FCR, Relative to C (%) [4, 7]: 98.3% | Feed intake [4, 7]: 2671 g/b | Feed intake, Relative to C (%) [4, 7]: 97.8% | Weight gain [4, 7]: 1581 g/b | Weight gain, Relative to C (%) [4, 7]: 99.7% | FCR [4, 8]: 1.686^a | FCR, Relative to C (%) [4, 8]: 98% | Feed intake [4, 8]: 2753 g/b | Feed intake, Relative to C (%) [4, 8]: 100.8% | Weight gain [4, 8]: 1633 g/b | Weight gain, Relative to C (%) [4, 8]: 102.9% | FCR [4, 9]: 1.403^ab | FCR, Relative to C (%) [4, 9]: 101.8% | Feed intake [4, 9]: 1551^ab g/b | Feed intake, Relative to C (%) [4, 9]: 105.4% | Weight gain [4, 9]: 1106 g/b | Weight gain, Relative to C (%) [4, 9]: 103.6% | FCR [4, 10]: 1.339^b | FCR, Relative to C (%) [4, 10]: 97.1% | Feed intake [4, 10]: 1403^d g/b | Feed intake, Relative to C (%) [4, 10]: 95.4% | Weight gain [4, 10]: 1049 g/b | Weight gain, Relative to C (%) [4, 10]: 98.3% | FCR [4, 11]: 1.332^b | FCR, Relative to C (%) [4, 11]: 96.6% | Feed intake [4, 11]: 1434^cd g/b | Feed intake, Relative to C (%) [4, 11]: 97.4% | Weight gain [4, 11]: 1076 g/b | Weight gain, Relative to C (%) [4, 11]: 100.9% | FCR [4, 12]: 1.604^a | FCR, Relative to C (%) [4, 12]: 101.6% | Feed intake [4, 12]: 4249 g/b | Feed intake, Relative to C (%) [4, 12]: 101.4% | Weight gain [4, 12]: 2651 g/b | Weight gain, Relative to C (%) [4, 12]: 99.9% | FCR [4, 13]: 1.548^bc | FCR, Relative to C (%) [4, 13]: 98.1% | Feed intake [4, 13]: 4069 g/b | Feed intake, Relative to C (%) [4, 13]: 97.1% | Weight gain [4, 13]: 2630 g/b | Weight gain, Relative to C (%) [4, 13]: 99.1% | FCR [4, 14]: 1.543^c | FCR, Relative to C (%) [4, 14]: 97.8% | Feed intake [4, 14]: 4181 g/b | Feed intake, Relative to C (%) [4, 14]: 99.8% | Weight gain [4, 14]: 2709 g/b | Weight gain, Relative to C (%) [4, 14]: 102.1% | Improvement of FCR compared to the control diet ([4]; day 1 to day 36, 12.5 mg/kg): 1.9% | Improvement of FCR compared to the control diet ([4]; day 1 to day 36, 25 mg/kg): 2.2% | Improvement of weight gain compared to C ([4]; day 1 to day 36, 25 mg/kg): 2.0% | Improvement of FCR compared to the control diet ([4]; grower period, 25 mg/kg): 2.0% | Improvement of weight gain compared to the control diet ([4]; grower period, 25 mg/kg): 2.9% | Improvement of weight gain compared to the control diet ([4]; starter period, 6.25 mg/kg): 3.6% | Improvement of FCR compared to the control diet ([4]; starter period, 12.5 mg/kg): 2.9% | Improvement of FCR compared to the control diet ([4]; starter period, 25 mg/kg): 3.4% | Observed shift compared to the control group, Significance (Clostridiales; Order level (Clostridiales)): + | Clostridiales Change vs control (Clostridiales; order level): 5.3792 | Clostridiales Ratio vs control (Clostridiales; order level): 1.1671 | Clostridiales abundance, Lysozyme treatment (Clostridiales; order level, ceca content): 37.5638 | Lysozyme activity as measured by Optical Density Drop [5]: + (pH 5)
